US20200216833A1

Biological target: SH2 domain of Abl1 kinase fused to 434 cI repressor (UniProt P16117)
Assay: cell-based or functional assay

HA4 Y84A monobody (from UniProt P0A800 1-91) (designed binder)
ON propagation on this AP combo, against the wt HA4 monobody: 105 fold lower
